This is an account of results in paper PMC4183573, “Cyclophilin A Associates with Enterovirus-71 Virus Capsid and Plays an Essential Role in Viral Infection as an Uncoating Regulator” (PLoS Pathogens, 2014).

Where no end group is shown, it is not given here.

The test deals with T1, recombinant human CypA without a GST tag (human, UniProt P62937 1-165).
T1 construct: cyclophilin A (CypA), human, cloned into pGEX-6p-1; source: E. coli BL21 (DE3), purified (GST column, PreScission Protease, Superdex-75); not shown: GST, N-terminal, cleaved
Description: pull-down; recombinant human CypA (200 µg) with 50 µl glutathione-sepharose beads holding GST, GST-1S or GST-1P (200 µg) in 300 µl buffer (50 mM Tris-HCl pH 8.0, 150 mM NaCl, 1% Nonidet P-40, 2 mM EDTA), overnight at 4°C; eluted with GSH; blot for GST and CypA. Conditions: both partners purified.

B1: GST-1S: peptide of the H-I loop of EV71 VP1 (239-GSSKSKYPL-247) fused to GST (peptide)
chain: GSSKSKYPL
modifications: also: fused to GST
notes: H-I loop of the capsid protein VP1 of EV71, residues 239-247; numbers count on: the VP1 protein, not the polypeptide; source: E. coli BL21 (DE3), held on glutathione-sepharose (GST column) beads; not shown: GST, N-terminal, kept
Turning to B1, the binding result is recorded as “binds”.

B2: GST-1P: H-I loop of EV71 VP1 with the S243P substitution (239-GSSKPKYPL-247) fused to GST (peptide)
chain: GSSKPKYPL
modifications: also: fused to GST
notes: H-I loop of the capsid protein VP1 of EV71, residues 239-247, with S243P; numbers count on: the VP1 protein, not the polypeptide; source: E. coli BL21 (DE3), held on glutathione-sepharose (GST column) beads; not shown: GST, N-terminal, kept
For B2, the binding result is “binds”.
